The text below walks through data of article PMC7990499 (eLife, 2021).

The target of the assay is T1, fluorescently tagged eIF2Bβδγε tetramer (eIF2Bβδγε-F) (human, UniProt P49770 2-351; Q9UI10 1-523; Q9NR50 1-452; Q13144 1-721).
T1 construct: eIF2Bβ (eIF2B subunit beta), human; eIF2Bδ (eIF2B subunit delta), human; eIF2Bγ (eIF2B subunit gamma), human; eIF2Bε (eIF2B subunit epsilon), human; also called eIF2Bβγδε-F; tagged tetramers; source: E. coli, co-expression of pMS029 and pJT074, purified as previously described (Tsai et al., 2018); not shown: mNeonGreen with (GS)5 linker, C-terminal, kept; mScarlet-i with (GS)5 linker, C-terminal, …
Kind of assay: FRET or BRET; in vitro equilibrium FRET (E592/E516), 50 nM eIF2Bβδγε-F with a titration of eIF2Bα2, 1 hr, room temperature, 20 mM HEPES-KOH pH 7.5, 100 mM KCl, 5 mM MgCl2, 1 mM TCEP, 0.5% DMSO. The following applies: both partners purified.

T1 sequence (P49770 2-351, stated change not applied, chain 1 of 4): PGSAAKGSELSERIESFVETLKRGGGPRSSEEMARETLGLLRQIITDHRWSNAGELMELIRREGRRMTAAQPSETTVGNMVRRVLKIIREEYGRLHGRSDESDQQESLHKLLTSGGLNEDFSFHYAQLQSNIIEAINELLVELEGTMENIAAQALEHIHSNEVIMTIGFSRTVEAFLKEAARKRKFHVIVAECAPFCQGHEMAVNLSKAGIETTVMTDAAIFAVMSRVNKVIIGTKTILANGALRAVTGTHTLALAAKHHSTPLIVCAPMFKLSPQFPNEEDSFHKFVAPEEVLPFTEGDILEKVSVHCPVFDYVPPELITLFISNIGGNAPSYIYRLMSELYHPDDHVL
T1 sequence (Q9UI10 whole entry, stated change not applied, chain 2 of 4): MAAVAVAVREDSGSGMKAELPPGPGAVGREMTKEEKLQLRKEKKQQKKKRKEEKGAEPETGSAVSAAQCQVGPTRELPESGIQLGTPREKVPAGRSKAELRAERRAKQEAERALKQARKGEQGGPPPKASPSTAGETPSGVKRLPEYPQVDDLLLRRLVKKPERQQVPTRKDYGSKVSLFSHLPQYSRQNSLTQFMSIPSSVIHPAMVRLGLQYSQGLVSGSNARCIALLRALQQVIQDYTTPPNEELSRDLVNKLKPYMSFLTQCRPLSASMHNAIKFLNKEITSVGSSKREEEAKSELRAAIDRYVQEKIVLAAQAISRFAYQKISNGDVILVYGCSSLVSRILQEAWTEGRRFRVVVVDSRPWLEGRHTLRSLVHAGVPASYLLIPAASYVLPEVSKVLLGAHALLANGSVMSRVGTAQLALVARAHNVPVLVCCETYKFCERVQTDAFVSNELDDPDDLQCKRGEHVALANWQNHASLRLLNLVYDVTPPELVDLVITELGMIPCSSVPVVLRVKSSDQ
T1 sequence (Q9NR50 whole entry, stated change not applied, chain 3 of 4): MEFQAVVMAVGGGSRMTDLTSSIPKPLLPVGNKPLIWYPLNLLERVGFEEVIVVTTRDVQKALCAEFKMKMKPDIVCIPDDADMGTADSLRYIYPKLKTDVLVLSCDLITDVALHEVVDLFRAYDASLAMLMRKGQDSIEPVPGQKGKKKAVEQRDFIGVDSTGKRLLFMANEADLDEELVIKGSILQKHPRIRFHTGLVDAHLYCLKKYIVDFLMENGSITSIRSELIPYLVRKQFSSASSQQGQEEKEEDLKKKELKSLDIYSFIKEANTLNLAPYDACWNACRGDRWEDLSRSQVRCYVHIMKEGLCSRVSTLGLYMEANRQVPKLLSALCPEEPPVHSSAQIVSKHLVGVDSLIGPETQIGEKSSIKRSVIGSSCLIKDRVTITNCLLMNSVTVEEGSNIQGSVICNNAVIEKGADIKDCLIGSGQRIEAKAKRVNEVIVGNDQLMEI
T1 sequence (Q13144 whole entry, stated change not applied, chain 4 of 4): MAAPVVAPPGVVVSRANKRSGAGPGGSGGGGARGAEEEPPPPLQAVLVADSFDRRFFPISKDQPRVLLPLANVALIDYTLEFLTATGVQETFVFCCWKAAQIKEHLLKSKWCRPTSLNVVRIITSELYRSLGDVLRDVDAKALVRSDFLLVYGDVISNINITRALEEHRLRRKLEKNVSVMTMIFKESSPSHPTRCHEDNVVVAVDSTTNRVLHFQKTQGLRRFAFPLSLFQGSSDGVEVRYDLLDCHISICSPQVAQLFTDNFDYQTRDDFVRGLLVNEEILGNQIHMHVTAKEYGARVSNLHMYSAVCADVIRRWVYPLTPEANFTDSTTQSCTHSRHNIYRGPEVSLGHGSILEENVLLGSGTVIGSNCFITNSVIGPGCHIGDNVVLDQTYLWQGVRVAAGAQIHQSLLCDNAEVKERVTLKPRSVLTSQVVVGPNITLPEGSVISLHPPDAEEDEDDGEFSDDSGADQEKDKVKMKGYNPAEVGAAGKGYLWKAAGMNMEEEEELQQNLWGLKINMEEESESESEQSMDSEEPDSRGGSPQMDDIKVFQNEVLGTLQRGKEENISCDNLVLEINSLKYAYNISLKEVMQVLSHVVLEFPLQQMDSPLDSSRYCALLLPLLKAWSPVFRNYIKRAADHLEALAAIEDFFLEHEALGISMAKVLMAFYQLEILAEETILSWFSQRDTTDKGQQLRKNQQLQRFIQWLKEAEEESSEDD

B1: eIF2Bα homodimer (eIF2Bα2) (natural protein, human)
chain: MDDKELIEYFKSQMKEDPDMASAVAAIRTLLEFLKRDKGETIQGLRANLTSAIETLCGVDSSVAVSSGGELFLRFISLASLEYSDYSKCKKIMIERGELFLRRISLSRNKIADLCHTFIKDGATILTHAYSRVVLRVLEAAVAAKKRFSVYVTESQPDLSGKKMAKALCHLNVPVTVVLDAAVGYIMEKADLVIVGAEGVVENGGIINKIGTNQMAVCAKAQNKPFYVVAESFKFVRLFPLNQQDVPDKFKYKADTLKVAQTGQDLKEEHPWVDYTAPSLITLLFTDLGVLTPSAVSDELIKLYL
notes: eIF2Bα (eIF2B subunit alpha), human; also called eIFBα2; eIF2Bα homodimers; source: E. coli, expressed separately (pJT075 or pMS027), purified as previously described (Tsai et al., 2018)
In the case of B1, the EC50 stood at 20 nM.
